Patent publication US20240026019A1 (Innovent, published 2024)

Tests used:
[1] = biological target: T1, cynomolgus monkey TNFR2 overexpressed on CHO-S cells (CHOS-cTNFR2) (cynomolgus monkey, UniProt P20333 23-461 (human entry)); experiment: flow cytometry on CHO-S cells overexpressing cynomolgus monkey TNFR2 (positive control), MFI-FL2-A; unit taken from the axis Conc log(nM)
T1 construct: also called cTNFR2 CHO-S
T1 chain: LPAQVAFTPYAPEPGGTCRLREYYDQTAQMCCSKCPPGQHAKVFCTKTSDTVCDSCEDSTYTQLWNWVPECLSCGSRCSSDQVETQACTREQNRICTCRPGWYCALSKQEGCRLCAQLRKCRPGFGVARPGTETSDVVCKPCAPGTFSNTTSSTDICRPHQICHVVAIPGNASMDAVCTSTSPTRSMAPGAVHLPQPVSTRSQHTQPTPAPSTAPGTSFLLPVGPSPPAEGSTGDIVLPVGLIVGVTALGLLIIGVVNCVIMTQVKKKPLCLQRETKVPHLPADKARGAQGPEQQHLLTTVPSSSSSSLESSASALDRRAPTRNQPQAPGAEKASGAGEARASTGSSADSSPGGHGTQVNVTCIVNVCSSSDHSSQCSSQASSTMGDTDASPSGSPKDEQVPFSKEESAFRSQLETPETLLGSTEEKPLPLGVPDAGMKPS
Experimental: In the study, the binding of the chimeric antibodies of the present invention, after being diluted in a gradient, to a stable CHO-S cell strain overexpressing human TNFR2 on the surface was assayed by using a flow cytometer. cDNAs encoding human TNFR2 (SEQ ID NO: 60) and cynomolgus monkey TNFR2 (SEQ ID NO: 61) were cloned into pCH01.0 vectors (Invitrogen), which were transfected into CHO-S cells (Invitrogen) to produce CHO-S cells overexpressing human TNFR2 (CHOS-hTNFR2) and CHO-S cells overexpressing cynomolgus monkey TNFR2 (CHOS-cTNFR2).
CHOS-hTNFR2 cells or CHOS-cTNFR2 cells were counted and diluted to 2×10⁶ cells/mL, and added to a U-bottom 96-well plate at 100 μL/well. The mixture was centrifuged at 300 g for 5 min, and the cell medium was removed. The dilutions of the samples (the chimeric antibodies 3C4, 69B1, and 72G8 and the positive control antibody OPI) (the antibodies were subjected to a three-fold serial dilution in PBS from the maximum antibody concentration of 300 nM) were added to the U-plate, and the cells were resuspended at 100 μL/well and left to stand on ice for 30 min. The suspension was centrifuged at 400 g for 5 min, and the supernatant was removed. The cells were washed twice with PBS. The mixture was centrifuged at 300 g for 5 min, and PBS was removed. […]

[2] = biological target: T2, TNFR2 on human K562 chronic myeloid leukemia cells and on primary human Treg cells (human, UniProt P20333 23-461); experiment: flow cytometry on human K562 CML cells, MFI(FL2); unit taken from the axis Conc log(nM)
T2 construct: whole, on cells; also called K562 cells
T2 sequence (looked up): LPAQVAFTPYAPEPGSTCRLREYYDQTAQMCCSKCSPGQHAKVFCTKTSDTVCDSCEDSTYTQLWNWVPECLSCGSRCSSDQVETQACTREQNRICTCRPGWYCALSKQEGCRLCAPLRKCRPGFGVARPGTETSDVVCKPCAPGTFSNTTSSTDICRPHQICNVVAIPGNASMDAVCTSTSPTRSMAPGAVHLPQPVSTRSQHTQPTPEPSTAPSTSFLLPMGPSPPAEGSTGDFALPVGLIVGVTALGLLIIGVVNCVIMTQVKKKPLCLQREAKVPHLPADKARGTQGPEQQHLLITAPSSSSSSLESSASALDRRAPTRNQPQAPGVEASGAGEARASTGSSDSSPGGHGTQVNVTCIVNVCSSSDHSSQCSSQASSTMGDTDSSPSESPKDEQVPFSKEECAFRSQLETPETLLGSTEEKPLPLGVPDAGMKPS
Experimental: Assay steps: The mixture was centrifuged at 400 g for 5 min, and the cell medium was removed. K562 or Treg cells were resuspended in PBS. After counting, the cells were adjusted to a density of 2×10⁶/mL, and the cell suspension was added to a U-bottom 96-well plate at 100 μL/well. The test antibody was added, subjected to a three-fold gradient dilution, and left to stand on ice for 30 min. The mixture was centrifuged at 300 g for 5 min, and the supernatant was removed. The cells were washed once with PBS. The mixture was centrifuged at 300 g for 5 min, and PBS was removed. 100 μL of PE-anti-human Fc antibody (SOUTHERN BIOTECH, 2040-09) diluted at a ratio of 1:200 was added to each well. The mixture was incubated on ice for 30 min in the dark. The mixture was centrifuged at 400 g for 5 min, and the supernatant was removed. The cells were washed twice with PBS. The cells were resuspended in 100 μL of PBS and assayed by using a flow cytometer (BD, ACCURIC6 plus).

[3] = biological target: T3, human TNFR2 overexpressed on CHO-S cells (CHOS-hTNFR2) (human, UniProt P20333 23-461); experiment: flow cytometry on CHO-S cells overexpressing human TNFR2 (positive control beside the hybridoma antibodies), MFI
T3 construct: also called hTNFR2 CHO-S; human TNFR2 molecule overexpressed on CHO-S cells
T3 sequence: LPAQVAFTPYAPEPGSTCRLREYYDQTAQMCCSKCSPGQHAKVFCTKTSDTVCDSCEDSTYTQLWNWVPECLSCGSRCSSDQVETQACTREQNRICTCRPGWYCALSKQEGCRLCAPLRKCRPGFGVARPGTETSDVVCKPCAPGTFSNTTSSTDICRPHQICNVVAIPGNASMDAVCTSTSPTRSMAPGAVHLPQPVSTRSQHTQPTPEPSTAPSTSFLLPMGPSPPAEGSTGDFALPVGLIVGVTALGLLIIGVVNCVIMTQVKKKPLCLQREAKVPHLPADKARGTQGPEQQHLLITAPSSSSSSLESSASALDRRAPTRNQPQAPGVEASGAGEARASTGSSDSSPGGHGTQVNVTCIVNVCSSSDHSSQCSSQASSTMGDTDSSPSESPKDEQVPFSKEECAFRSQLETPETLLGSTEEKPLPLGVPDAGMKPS
Experimental: In the study, the binding of the hybridoma antibodies (3C4, 69B1, and 72G8) of the present invention, after being diluted in a gradient, to a stable CHO-S cell strain overexpressing human TNFR2 on the surface was assayed by using a flow cytometer.
CHOS-hTNFR2 cells or CHOS-cTNFR2 cells were counted and diluted to 2×10⁶ cells/mL, and added to a U-bottom 96-well plate at 100 μL/well. The mixture was centrifuged at 300 g for 5 min, and the cell medium was removed. The dilutions of the samples (the hybridoma antibodies 3C4, 69B1, and 72G8 and the positive control antibody OPI) (the antibodies were subjected to a two-fold serial dilution in PBS from the maximum antibody concentration of 300 nM) were added to the U-plate, and the cells were resuspended at 100 μL/well and left to stand on ice for 30 min. The suspension was centrifuged at 400 g for 5 min, and the supernatant was removed. The cells were washed twice with PBS. The mixture was centrifuged at 300 g for 5 min, and PBS was removed. […] The mixture was centrifuged at 400 g for 5 min, and the supernatant was removed. The cells were washed 3 times with PBS. The cells were resuspended in 200 μL of 1×PBS and assayed by FACS.

B1: positive control antibody OPI (humanized antibody SBT-002e in WO 2017083525) (antibody, V domains shown)
VH: QVTLKESGPALVKPTQTLTLTCTFSGFSLSTSGMGVGWIRQPPGKALEWLAHIWWDDDKFYNPSLKSRLTISKDTSKNQVVLTMTNMDPVDTATYYCARLTGTRYFDYWGQGTTVTVSS
VL: DVQMTQSPSSLSASVGDRVTITCKASQDINKFIAWYQQKPGKAPKLLIHYTSTLQPGIPSRFSGSGSGRDYTFTISSLQPEDIATYYCLQYGNLWTFGGGTKVEIK
notes: also called Benchmark OPI
- EC50 [1]: 0.431 nM
- EC50 [2]: 0.0916 nM
- EC50 (read off the curve) [3]: ~2 nM
